# According to the nanobody polyreactivity screen of Harvey et al. (2022):
# Experiment: yeast display, Sf9 membrane polyspecificity reagent, FACS + sequencing; frameworks hold sequencing errors
# Method in brief: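 A nanobody's polyreactivity label depends on the gate it was sorted from. Yeast display cells were stained with 10% biotinylated, detergent-solubilized Sf9 membrane reagent for 1 hour at 4 °C, enriched on streptavidin microbeads and sorted by FACS. The low and high (top ~1%) gates were set on anti-HA fluorescence for expression and streptavidin fluorescence for reagent binding.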
row,Sequence,polyreactivity (PSR sort gate)
1,QVQLVESGGGLVQAGGSLRLSCAASGFTFYLYAMGWYRQAPGKERELVAASTWSGGRTYYADSVKGRFTISRDNAKNTVYLQMNSLKPEDTADYYCAVDGFRGRSHGANDFWGQGTQVTVSS,high polyreactivity
2,QVQLVESGGGLVQAGGSLRLSCAASGRIFTYNAMGWYRQAPGKERELVAVISRRGGSTYYADSVKGRFTISRDYAKNTVYFQMNSLKAEDTAVYYCAGDLPSYPYEYWGQGTQVTVSS,low polyreactivity
3,QVQLVESGGGLVQAGGSLRLSCAASGRTFYYYAMGWYRQAPGKERELVAAISSSGGSTYYADSVKGRFTISRDNAKNTVYLQMNSLKPEDTAVYYCNARYGGYRARYTYNYWGQGTQVTVSS,high polyreactivity
4,QVQLVESGGGLVQAGGSLRLSGAASGRTFYQYAMGWYRQAPGKARELVAAISWSDGSTSYADSVKGRFTISRDNAKNTVYLQMNSLKPEDTAGYYCAKDWTGTKAIEYDYWGQGTQVTVSS,low polyreactivity
5,QVQLVESGGGLVQAGGSLRLSCAASGSISDSYAMGWYRPAPGKERELVAAITSGDSTYYADSVKGRFTISRDNAKNTVYLQMNSLKPEDTAVYYCAKRVSRVRGYGFTDWSEYDYWGQGTQVTVSS,low polyreactivity
6,QVQLVESGGGLVQAGGSLRLSCAASGFTFAGYAMGWYRQAPGKERELVAAINRGGSTYYADSVKGRFTISRDNAKNTVYLQMNSLKPEDTAVYYCAKAQRFYGGRMGYWGQGTQVTVST,low polyreactivity
7,QVQLVESGGGLVQAGGILRLSCAASGLTFEQYAMGWYRQAPGKERELVAAISWSGGRTYYADSVKGRFTISRDNAKNTVYLQMNSLKPEDTAVYYCAKDRGCPFYWRYPLGYWGQGTQVTVSS,high polyreactivity
8,QVQLVETGGGLVQAGGSLRLSCAASGITFERYVMGWYRQAPGKERELVAVITKRGGNTYYADSVKGRFTISRDNAKNTVYLQMNSLKPEDTSVYYCATRSGRSTGDYWGQGTQVTVSS,high polyreactivity
9,QVQLVESGGGLVQAGGSLRLSCAASGSIFKFYAMGWNRQAPGKERAFVAAITYRGGSTYYADSVKGRFTISRDNAKNTVYLQMNRLKPEDTAVYYCNAVVLRWRGYLVPFNYWGQGTQVTVSS,high polyreactivity
10,QVQLVESGGGLVQAGGSLRLSCAASGRIFVKYAMGWYRQAPGKERELVARITRGGRTNYADSVKGRFTISRDNAKNTVYLQMNSLKPEDTAVYYCNAGWGMRLSWLGNYWGQGTQVTVSS,high polyreactivity
11,QVQLVESGGGLVQAGGSLRLSCAASGFIFHVYAMGWYRQAPGKEREFVAGISWRGGRTYYADSVKGRFTISRDNAKNTVYLQLNSLKPEDTAVYYCAALGLNAGGKFDYWGQGTQVTVSS,high polyreactivity
12,QVQLVESGGGLVQAGGSLRLSCADSGRIFGYYTMGWSRQAPGKERELVAAITSSGSSTYYADSVKGRFTISRDNAKNTVYLQMNSLKPEDTAVYYCNARAYWRNEYWGQGTQVTVSS,high polyreactivity
13,QVQLVESGGGLVQAGGSLRLSCAASGRIFTPYAMGWYRQAPGKERELVAAISSSGGSTYYADSVKGRFTISRDNAKNTVYLQMNSLKPEDTAVYYCAAVHYRHVRYDYWGQATQVTVSS,high polyreactivity
14,QVQLVESGGGLVQAGGSLRLSCAASGLIFKSNAMGWYRPAPGKERELVAAITRTGGSTYYADSVKGRFTISRDNAKNTVYLQMNSLKPEDTAVYYCAKVVGRWRSSWELDYWGQGTQVTVSS,high polyreactivity
15,QVQRVESGGGLVQAGGSLRLSCAASGRTFSSYDLGWYRQAPGKERELVAAITSGGSTYYADSVKGRFTISRDNAKNTVYLQMNSLKPDDTAVYYCAADIYWWCSKDYDYWGQGTQVTVSS,high polyreactivity
16,QVQLVESGLGIVQAGGSLRVSCAASGSTISNYAMGWYRHAPGKERELVAAITSGGTTNYADSVKGRFTISRDNAKNTVYFQMNSLIPEDTAVYYCAKRYSYHVPTHLWVEYYYWGQGTQVTVSS,low polyreactivity
17,QLQLEESGGGLVQAGGSLRLSCAAYGNILGYNAMGWYRQAPGKERELVAAISDNADSTYYADSVKGRFTISRDNAKNTVYLQMNSLKPEDPAVYYCAADWVLRTWLFWYTKYDYWGQGTQVTVSS,low polyreactivity
